Source: publication PMC3127751, “Adhesive polypeptides of Staphylococcus aureus identified using a novel secretion library technique in Escherichia coli” (BMC Microbiology, 2011)

B2: fibrinogen (complex)
chain 1: ADSGEGDFLAEGGGVRGPRVVERHQSACKDSDWPFCSDEDWNYKCPSGCRMKGLIDEVNQDFTNRINKLKNSLFEYQKNNKDSHSLTTNIMEILRGDFSSANNRDNTYNRVSEDLRSRIEVLKRKVIEKVQHIQLLQKNVRAQLVDMKRLEVDIDIKIRSCRGSCSRALAREVDLKDYEDQQKQLEQVIAKDLLPSRDRQHLPLIKMKPVPDLVPGNFKSQLQKVPPEWKALTDMPQMRMELERPGGNEITRGGSTSYGTGSETESPRNPSSAGSWNSGSSGPGSTGNRNPGSSGTGGTATWKPGSSGPGSTGSWNSGSSGTGSTGNQNPGSPRPGSTGTWNPGSSERGSAGHWTSESSVSGSTGQWHSESGSFRPDSPGSGNARPNNPDWGTFEEVSGNVSPGTRREYHTEKLVTSKGDKELRTGKEKVTSGSTTTTRRSCSKTVTKTVIGPDGHKEVTKEVVTSEDGSDCPEAMDLGTLSGIGTLDGFRHRHPDEAAFFDTASTGKTFPGFFSPMLGEFVSETESRGSESGIFTNTKESSSHHPGIAEFPSRGKSSSYSKQFTSSTSYNRGDSTFESKSYKMADEAGSEADHEGTHSTKRGHAKSRPV
chain 2: QGVNDNEEGFFSARGHRPLDKKREEAPSLRPAPPPISGGGYRARPAKAAATQKKVERKAPDAGGCLHADPDLGVLCPTGCQLQEALLQQERPIRNSVDELNNNVEAVSQTSSSSFQYMYLLKDLWQKRQKQVKDNENVVNEYSSELEKHQLYIDETVNSNIPTNLRVLRSILENLRSKIQKLESDVSAQMEYCRTPCTVSCNIPVVSGKECEEIIRKGGETSEMYLIQPDSSVKPYRVYCDMNTENGGWTVIQNRQDGSVDFGRKWDPYKQGFGNVATNTDGKNYCGLPGEYWLGNDKISQLTRMGPTELLIEMEDWKGDKVKAHYGGFTVQNEANKYQISVNKYRGTAGNALMDGASQLMGENRTMTIHNGMFFSTYDRDNDGWLTSDPRKQCSKEDGGGWWYNRCHAANPNGRYYWGGQYTWDMAKHGTDDGVVWMNWKGSWYSMRKMSMKIRPFFPQQ
chain 3: YVATRDNCCILDERFGSYCPTTCGIADFLSTYQTKVDKDLQSLEDILHQVENKTSEVKQLIKAIQLTYNPDESSKPNMIDAATLKSRKMLEEIMKYEASILTHDSSIRYLQEIYNSNNQKIVNLKEKVAQLEAQCQEPCKDTVQIHDITGKDCQDIANKGAKQSGLYFIKPLKANQQFLVYCEIDGSGNGWTVFQKRLDGSVDFKKNWIQYKEGFGHLSPTGTTEFWLGNEKIHLISTQSAIPYALRVELEDWNGRTSTADYAMFKVGPEADKYRLTYAYFAGGDAGDAFDGFDFGDDPSDKFFTSHNGMQFSTWDNDNDKFEGNCAEQDGSGWWMNKCHAGHLNGVYYQGGTYSKASTPNGYDNGIIWATWKTRWYSMKKTTMKIIPFNRLTIGEGQQHHLGGAKQAGDV
modifications: plasma fibrinogen (AαBβγ)2, disulfide-linked and glycosylated, fibrinopeptides retained; the main circulating forms are assumed (Aα 610 residues, γA 411 residues). The γA chain is taken from PDB …

Tests used:
Experiment in all cases: SPR; Biacore T100, CM5 chip, Fn and Fg amine-coupled; His-polypeptides as analytes at 0.5, 1.0, 1.5, 2.0 and 2.5 μM in PBS, 30 μl/min, single cycle kinetics; steady state affinity constants
Conditions in all cases: both partners purified
human plasma fibronectin = human plasma fibronectin (human)
Chain of human plasma fibronectin (human) (P02751 other isoform, or with tags, fused parts or gaps, chain 1 of 2): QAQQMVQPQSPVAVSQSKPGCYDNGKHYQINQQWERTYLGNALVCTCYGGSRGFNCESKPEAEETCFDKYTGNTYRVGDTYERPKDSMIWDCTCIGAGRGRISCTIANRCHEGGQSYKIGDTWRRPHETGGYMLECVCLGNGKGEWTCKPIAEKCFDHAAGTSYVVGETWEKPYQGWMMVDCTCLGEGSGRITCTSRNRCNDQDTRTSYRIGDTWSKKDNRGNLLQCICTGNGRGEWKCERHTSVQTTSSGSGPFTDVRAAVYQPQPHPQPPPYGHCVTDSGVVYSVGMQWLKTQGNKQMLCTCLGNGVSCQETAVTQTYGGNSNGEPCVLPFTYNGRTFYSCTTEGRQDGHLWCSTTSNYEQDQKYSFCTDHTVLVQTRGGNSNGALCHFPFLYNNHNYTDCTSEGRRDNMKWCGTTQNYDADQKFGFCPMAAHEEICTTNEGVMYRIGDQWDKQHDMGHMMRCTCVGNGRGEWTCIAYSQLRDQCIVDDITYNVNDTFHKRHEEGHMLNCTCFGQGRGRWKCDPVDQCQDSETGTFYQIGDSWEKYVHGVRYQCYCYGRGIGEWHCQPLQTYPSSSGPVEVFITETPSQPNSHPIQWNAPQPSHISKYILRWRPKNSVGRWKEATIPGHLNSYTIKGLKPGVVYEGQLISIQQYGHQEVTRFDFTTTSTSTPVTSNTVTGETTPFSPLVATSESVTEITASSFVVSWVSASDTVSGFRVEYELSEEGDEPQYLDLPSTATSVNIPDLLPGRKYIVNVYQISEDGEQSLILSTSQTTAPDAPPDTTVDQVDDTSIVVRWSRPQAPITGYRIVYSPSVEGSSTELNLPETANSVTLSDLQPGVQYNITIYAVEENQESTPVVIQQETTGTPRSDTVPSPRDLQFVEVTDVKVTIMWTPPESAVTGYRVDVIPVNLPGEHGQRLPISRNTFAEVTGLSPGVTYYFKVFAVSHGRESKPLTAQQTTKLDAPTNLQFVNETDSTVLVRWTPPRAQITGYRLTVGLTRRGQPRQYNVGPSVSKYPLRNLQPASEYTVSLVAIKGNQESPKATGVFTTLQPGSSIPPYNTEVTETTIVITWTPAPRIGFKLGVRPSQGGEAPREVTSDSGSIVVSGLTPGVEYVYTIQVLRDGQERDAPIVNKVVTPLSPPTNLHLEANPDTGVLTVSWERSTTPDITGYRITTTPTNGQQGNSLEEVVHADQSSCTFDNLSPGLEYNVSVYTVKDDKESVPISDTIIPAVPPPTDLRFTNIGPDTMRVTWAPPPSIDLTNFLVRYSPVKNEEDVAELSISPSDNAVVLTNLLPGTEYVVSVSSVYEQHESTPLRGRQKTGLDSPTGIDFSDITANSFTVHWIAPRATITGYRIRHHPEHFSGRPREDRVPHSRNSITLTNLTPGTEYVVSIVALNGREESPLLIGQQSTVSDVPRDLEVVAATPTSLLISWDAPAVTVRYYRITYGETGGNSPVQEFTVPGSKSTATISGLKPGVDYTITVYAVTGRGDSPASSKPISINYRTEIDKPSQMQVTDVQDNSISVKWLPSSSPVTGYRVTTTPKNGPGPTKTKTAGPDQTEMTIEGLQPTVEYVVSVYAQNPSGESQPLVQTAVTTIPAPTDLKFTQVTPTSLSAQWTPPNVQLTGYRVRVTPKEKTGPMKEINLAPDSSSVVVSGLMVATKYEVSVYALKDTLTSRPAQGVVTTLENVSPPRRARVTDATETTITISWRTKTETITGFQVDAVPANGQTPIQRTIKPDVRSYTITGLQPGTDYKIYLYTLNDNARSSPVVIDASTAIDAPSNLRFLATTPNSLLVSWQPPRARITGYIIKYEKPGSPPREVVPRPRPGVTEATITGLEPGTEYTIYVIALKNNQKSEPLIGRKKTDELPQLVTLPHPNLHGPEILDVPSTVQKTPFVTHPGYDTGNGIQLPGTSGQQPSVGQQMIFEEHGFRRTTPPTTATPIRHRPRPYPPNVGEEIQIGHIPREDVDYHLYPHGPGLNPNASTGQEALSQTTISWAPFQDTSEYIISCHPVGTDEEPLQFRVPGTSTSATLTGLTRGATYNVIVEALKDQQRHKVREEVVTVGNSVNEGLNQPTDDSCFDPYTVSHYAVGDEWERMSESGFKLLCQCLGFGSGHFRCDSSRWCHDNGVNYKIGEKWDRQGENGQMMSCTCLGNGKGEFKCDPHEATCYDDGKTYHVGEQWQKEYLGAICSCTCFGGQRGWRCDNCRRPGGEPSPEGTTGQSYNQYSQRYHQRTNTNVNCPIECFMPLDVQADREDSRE
Chain of human plasma fibronectin (human) (P02751 other isoform, or with tags, fused parts or gaps, chain 2 of 2): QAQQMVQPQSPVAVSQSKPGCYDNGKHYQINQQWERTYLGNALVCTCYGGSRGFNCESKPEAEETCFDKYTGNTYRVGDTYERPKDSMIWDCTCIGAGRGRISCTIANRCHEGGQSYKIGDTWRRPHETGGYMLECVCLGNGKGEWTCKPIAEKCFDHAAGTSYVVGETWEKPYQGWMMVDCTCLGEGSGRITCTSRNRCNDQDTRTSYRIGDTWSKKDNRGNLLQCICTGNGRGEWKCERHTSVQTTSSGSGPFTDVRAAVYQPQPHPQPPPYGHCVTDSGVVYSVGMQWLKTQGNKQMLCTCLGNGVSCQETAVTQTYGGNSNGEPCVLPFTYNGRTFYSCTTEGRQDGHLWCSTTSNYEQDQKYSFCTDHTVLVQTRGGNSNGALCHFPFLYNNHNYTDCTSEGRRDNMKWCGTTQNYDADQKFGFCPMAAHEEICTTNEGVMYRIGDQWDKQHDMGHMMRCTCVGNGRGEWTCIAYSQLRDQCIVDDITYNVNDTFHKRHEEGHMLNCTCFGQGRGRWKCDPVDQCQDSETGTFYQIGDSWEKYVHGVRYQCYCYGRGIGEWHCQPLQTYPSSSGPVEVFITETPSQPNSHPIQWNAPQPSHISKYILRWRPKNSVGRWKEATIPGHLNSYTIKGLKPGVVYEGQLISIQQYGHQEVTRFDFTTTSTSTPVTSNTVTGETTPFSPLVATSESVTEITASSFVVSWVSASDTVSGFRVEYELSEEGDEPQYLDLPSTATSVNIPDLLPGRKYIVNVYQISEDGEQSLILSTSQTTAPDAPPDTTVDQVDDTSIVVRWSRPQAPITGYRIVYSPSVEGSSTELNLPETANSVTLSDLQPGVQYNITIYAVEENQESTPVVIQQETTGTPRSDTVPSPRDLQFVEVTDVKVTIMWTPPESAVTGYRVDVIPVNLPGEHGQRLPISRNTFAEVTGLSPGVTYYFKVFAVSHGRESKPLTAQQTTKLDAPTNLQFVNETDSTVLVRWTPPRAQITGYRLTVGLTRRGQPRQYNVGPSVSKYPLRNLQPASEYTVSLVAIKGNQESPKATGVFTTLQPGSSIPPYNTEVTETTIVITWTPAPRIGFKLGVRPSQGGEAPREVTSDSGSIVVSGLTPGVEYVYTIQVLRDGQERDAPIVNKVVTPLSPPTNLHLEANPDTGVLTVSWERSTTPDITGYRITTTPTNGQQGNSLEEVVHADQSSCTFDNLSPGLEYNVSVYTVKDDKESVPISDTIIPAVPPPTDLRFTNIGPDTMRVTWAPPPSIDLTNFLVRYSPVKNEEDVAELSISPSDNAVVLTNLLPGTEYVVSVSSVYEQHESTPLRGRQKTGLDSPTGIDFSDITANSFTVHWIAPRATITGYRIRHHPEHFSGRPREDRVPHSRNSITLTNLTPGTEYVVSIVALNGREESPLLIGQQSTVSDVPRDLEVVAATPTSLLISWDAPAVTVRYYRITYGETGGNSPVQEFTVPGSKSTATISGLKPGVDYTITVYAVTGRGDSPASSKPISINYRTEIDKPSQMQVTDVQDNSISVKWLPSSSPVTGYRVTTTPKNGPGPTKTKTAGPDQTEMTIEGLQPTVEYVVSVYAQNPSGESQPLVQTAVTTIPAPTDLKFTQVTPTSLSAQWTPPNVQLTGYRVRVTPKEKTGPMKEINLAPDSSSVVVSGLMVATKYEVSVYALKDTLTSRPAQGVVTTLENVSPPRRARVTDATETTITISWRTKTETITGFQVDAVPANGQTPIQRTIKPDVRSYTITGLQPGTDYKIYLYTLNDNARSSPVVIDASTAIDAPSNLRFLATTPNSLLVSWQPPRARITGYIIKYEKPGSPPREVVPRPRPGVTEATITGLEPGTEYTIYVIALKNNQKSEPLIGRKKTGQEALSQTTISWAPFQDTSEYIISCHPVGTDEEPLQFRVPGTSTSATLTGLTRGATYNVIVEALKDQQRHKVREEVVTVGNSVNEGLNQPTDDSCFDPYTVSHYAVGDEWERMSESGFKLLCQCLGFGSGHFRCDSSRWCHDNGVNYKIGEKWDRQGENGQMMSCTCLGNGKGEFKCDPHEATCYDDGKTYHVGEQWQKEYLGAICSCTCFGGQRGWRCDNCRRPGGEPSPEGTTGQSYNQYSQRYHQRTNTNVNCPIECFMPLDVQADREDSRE

His-ΔCoa = His-ΔCoa (S. aureus subsp. aureus NCTC 8325-4, UniProt Q2G1D3 1-636)
His-ΔEbh = target: T1, His-ΔEbh (S. aureus subsp. aureus NCTC 8325-4, UniProt Q2FYJ6 40-9535)
T1 construct: the Ebh gene fragment of library clone ΔEbh (as the staphylococcal part of m3), recloned by PCR into pQE30; also called ΔEbh purified 6xHis polypeptide; source: E. coli cytoplasm (pQE30), purified under native conditions (QIAexpress System), dialysed against PBS; not shown: His6, N-terminal, kept

fibrinogen = target: B2

B1: His-ΔFnBPA (domain or fragment)
chain: ASEQKTTTVEENGNSATDNKTSETQTTATNVNHIEETQSYNATVTEQPSNATQVTTEEAPKAVQAPQTAQPANIETVKEEVVKEEAKPQVKETTQSQDNSGDQRQVDLTPKKATQNQVAETQVEVAQPRTASESKPRVTRSADVAEAKEASNAKVETGTDVTSKVTVEIGSIEGHNNTNKVEPHAGQRAVLKYKLKFENGLHQGDYFDFTLSNNVNTHGVSTARKVPEIKNGSVVMATGEVLEGGKIRYTFTNDIEDKVDVTAELEINLFIDPKTVQTNGNQTITSTLNEEQTSKELDVKYKDGIGNYYANLNGSIETFNKANNRFSHVAFIKPNNGKTTSVTVTGTLMKGSNQNGNQPKVRIFEYLGNNEDIAKSVYANTTDTSKFKEVTSNMSGNLNLQNNGSYSLNIENLDKTYVVHYDGEYLNGTDEVDFRTQMVGHPEQLYKYYYDRGYTLTWDNGLVLYSNKANGNEKNGPIIQNNKFEYKEDTIKETLTGQYDKNLVTTVEEEYDSSTLDIDYHTAIDGGGGYVDGYIETIEETDSSAIDIDYHTAVDSEAGHVGGYTESSEESNPIDFEESTHENSKHHADVVEYEEDTNPGGGQVTTESNLVEFDEESTKGIVTGAVSDHTTVEDTKEYTTESNLIELVDELPEEHGQAQGPVEEITKNNHHISHSGLGTENGHGNYDVIEEIEENSHVDIKSELGYEGGQNSGNQSFEEDTEEDKPKYEQGGNIVDIDFDSVPQIHGQNKGNQSFEEDTEKDKPKYEHGGNIIDIDFDSVPHIHGFNKHTEIIEEDTNKDKPSYQFGGHNSVDFEEDTLPKVSGQNEGQQTIEEDTTPPIVPPTPPTPEVPSEPETPTPPTPEVPSEPETPTPPTPEVPSEPETPTPPTPEVPAEPGKPVPPAKEEPKKPSKPVEQGKVVTPVIEINEKVKAVAPTKKPQSKKSELPET
notes: the FnBPA gene fragment of library clone ΔFnBPA (as the staphylococcal part of m2); also called ΔFnBPA purified 6xHis polypeptide; source: E. coli cytoplasm (pQE30), purified under native conditions (QIAexpress System), dialysed against PBS; not shown: His6, N-terminal, kept
Work on B1 yielded a Kd (human plasma fibronectin) of 5.24 µM.

Work on B2 yielded a Kd (His-ΔCoa) of 0.18 µM and a Kd (His-ΔEbh) of 1.25 µM.

B3: His-ΔPurK (domain or fragment)
chain: MNFNKLKFGATIGIIGGGQLGKMMAQSAQKMGYKVVVLDPSEDCPCRYVAHEFIQAKYDDEKALNQLGQKCDVITYEFENISAQQLKLLCEKYNIPQGYQAIQLLQDRLTEKETLKSAGTKVVPFISVKESTDIDKAIETLGYPFIVKTRFGGYDGKGQVLINNEKDLQEGFKLIETSECVAEKYLNIKKEVSLTVTRGNNNQITFFPLQENEHRNQILFKTIVPARIDKTAEAKEQVNKIIQSIHFIGTFTVEFFIDSNNQLYVNEIAPRPHNSGHYSIEACDYSQFDTHILAVTGQSLPNSIELLKPAVMMNLLGKDLDLLENEFNEHPEWHLHIYGKSERKDSRKMGHMTVLTNDVNQTEQDMYAKFEGSN
notes: the PurK gene fragment of library clone ΔPurK (as the staphylococcal part of m5), recloned by PCR into pQE30; also called ΔPurK purified 6xHis polypeptide; source: E. coli cytoplasm (pQE30), purified under native conditions (QIAexpress System), dialysed against PBS; not shown: His6, N-terminal, kept
In the case of B3, the Kd (human plasma fibronectin) is reported as 0.443 µM and the Kd (fibrinogen) is reported as 5.39 µM.

B4: His-ΔUsp (domain or fragment)
chain: MITYKNILIAVDGSHEAEWAFNRAVGVAKRNDAKLTIVNVIDSRTYSSYEVYDAQFTEKSKHFAEELLNGYKEVATNAGVKDVETRLEFGSPKSIIPKKLAHEINADLIMSGTSGLNAVERFIVGSVSESIVRHAPCDVLVVRTEELPADFQPQVATTQLREKYQN
notes: the Usp-like gene fragment of library clone ΔUsp (as the staphylococcal part of m7), recloned by PCR into pQE30; also called ΔUsp purified 6xHis polypeptide; source: E. coli cytoplasm (pQE30), purified under native conditions (QIAexpress System), dialysed against PBS; not shown: His6, N-terminal, kept
B4 was tested, and the Kd (fibrinogen) was 6.45 µM.
